# Bridge positions count the residues as written; N and C are the ends. Square brackets hold non-standard residues; d marks the D form. Primed or numbered codes have the meaning given here. Ends that are not written are not given here. PEG2′ = not defined here
# Assays:
# [1] = target: human EphA5 ligand-binding domain (LBD), residues 59-235 (human, UniProt P54756 59-235, K232E (from the reverse primer; not stated by the paper) | C233A (from the …, disulfide bridges Cys137-Cys147 and Cys102-Cys220; 15N-labelled for the NMR titration); test: ITC
# Target sequence in this assay (P54756 59-235 K232E/C233A): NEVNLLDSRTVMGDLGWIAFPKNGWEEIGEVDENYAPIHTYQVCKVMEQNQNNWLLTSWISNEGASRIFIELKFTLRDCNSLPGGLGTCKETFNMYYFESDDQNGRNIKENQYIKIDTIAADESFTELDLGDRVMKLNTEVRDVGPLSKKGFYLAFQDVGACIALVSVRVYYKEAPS
# [2] = target: T1, human EphA5 ligand-binding domain (LBD), residues 59-235 (human, UniProt P54756 59-235, K232E (from the reverse primer; not stated by the paper) | C233A (from the …, disulfide bridges Cys137-Cys147 and Cys102-Cys220; 15N-labelled for the NMR titration); test: ITC; EphA5 LBD in the cell, bacterially expressed WDC in the syringe; 10 mM phosphate buffer pH 6.3, 25°C; single binding site model; conditions: both partners purified
# T1 construct: Cloned through BamHI into a modified pET32a and released by thrombin, so extra N-terminal residues (probably GS) may remain; also called EphA5 LBD; source: E. coli Rosetta-gami (DE3), purified (Ni-NTA, thrombin cleavage, gel filtration, Mono Q)
# T1 sequence (P54756 59-235 K232E/C233A): as above
# rat EphA5 Fc = target: T2, rat EphA5 Fc (rat, UniProt P54757 27-575); test: ELISA; rat EphA5 Fc (1 µg/mL) held on Protein A-coated wells; different concentrations of synthetic WDC with 0.6 nM ephrin-A5 AP for 1 hour; bound AP detected with pNPP; IC50 by non linear regression; conditions: both partners purified
# T2 construct: EphA5, rat, Fc fusion; source: bought: R&D Systems
# T2 sequence (P54757 27-575): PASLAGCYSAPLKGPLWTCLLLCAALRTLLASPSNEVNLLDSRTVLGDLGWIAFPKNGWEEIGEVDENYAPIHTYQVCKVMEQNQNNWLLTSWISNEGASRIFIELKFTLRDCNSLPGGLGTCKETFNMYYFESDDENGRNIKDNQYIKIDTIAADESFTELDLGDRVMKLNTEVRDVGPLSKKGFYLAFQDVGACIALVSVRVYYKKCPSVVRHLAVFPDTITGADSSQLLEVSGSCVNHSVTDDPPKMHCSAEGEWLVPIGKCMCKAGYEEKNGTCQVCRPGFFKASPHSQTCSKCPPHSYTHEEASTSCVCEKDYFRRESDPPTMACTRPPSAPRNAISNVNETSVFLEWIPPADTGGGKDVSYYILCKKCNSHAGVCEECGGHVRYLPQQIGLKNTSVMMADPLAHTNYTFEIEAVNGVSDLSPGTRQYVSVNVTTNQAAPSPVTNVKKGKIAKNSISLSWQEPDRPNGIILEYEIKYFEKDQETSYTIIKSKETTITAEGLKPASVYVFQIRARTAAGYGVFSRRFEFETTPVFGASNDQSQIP
Binder,Ka [1] [M⁻¹],Kd [2] [µM],IC50 (rat EphA5 Fc) [µM]
"WDCNGPYCHWLG (disulfide 3-8 (inferred), 12-residue peptide previously identified in a phage-display screen on the extracellular domain of rat EphA5; Cloned through BamHI into a modified pGEX-4T-1; also called WDC peptide; recombinant peptide; source: E. coli Rosetta-gami (DE3), GST fusion, released by in-gel thrombin cleavage, HPLC purified) [WDC antagonistic peptide (WDCNGPYCHWLG), bacterially expressed]",161000,6.2,–
"WDCNGPYCHWLG[PEG2′]KK (disulfide 3-8, WDC peptide; two lysines joined to the peptide through (PEG)2, which is not an amino acid linker; also called synthetic WDC peptide; source: synthetic peptide (Anaspec, Inc.)) [modified WDC peptide (WDCNGPYCHWLG-(PEG)2-KK), synthetic]",–,–,~50
